{"source": "paper PMC3471833", "target": "human complement C1 esterase inhibitor (human) (UniProt P05155)", "sequence (P05155 23-500)": "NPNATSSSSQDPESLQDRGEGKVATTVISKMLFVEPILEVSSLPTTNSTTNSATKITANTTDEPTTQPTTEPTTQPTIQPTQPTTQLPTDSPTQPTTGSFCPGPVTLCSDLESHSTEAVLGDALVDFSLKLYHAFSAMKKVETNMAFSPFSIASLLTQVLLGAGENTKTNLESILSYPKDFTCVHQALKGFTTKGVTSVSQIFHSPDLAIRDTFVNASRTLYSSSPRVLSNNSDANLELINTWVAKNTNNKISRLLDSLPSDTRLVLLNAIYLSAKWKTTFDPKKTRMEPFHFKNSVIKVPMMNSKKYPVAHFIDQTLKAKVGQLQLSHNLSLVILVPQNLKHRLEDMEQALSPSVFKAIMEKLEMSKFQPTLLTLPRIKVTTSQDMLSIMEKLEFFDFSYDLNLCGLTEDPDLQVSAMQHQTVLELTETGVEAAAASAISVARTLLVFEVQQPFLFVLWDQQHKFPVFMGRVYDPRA"}
{"substance": "Activated C1s (enzyme)", "values": [{"measurement": "percentage of dead E. coli BL21 (Live/Dead staining) after antibody 2E4 and human complement plasma treated with OSCS (25.5% without GAG, 26.5% with CSA)", "value": 8, "unit": "%"}]}
